For experiment [1], the target named is full length GPVI on transfected DT40 cells (with FcR-γ chain) (UniProt Q9HCN6). The experiment can be described thus: cell-based or functional assay.
Experiment [2] addresses T1, full length GPVI on transfected DT40 cells (with FcR-γ chain) (UniProt Q9HCN6 21-339).
T1 sequence (looked up): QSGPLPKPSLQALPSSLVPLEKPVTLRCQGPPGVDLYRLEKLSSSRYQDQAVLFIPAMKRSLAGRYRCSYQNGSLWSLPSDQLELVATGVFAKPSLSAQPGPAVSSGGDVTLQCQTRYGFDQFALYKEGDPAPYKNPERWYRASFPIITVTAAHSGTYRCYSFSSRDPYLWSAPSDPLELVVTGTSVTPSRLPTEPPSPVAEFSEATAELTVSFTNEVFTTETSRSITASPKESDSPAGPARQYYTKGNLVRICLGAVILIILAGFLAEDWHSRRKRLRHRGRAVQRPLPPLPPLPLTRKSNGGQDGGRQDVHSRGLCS
The experiment can be described thus: cell-based or functional assay.

Experiment [3] addresses T2, GPVI on human washed platelets (human, UniProt Q9HCN6 21-339).
T2 sequence (looked up): T1 sequence (looked up)
The experiment can be described thus: cell-based or functional assay.

For experiment [4], the target named is monomeric GPVI (GPVI-Fc cleaved with Factor Xa, Fc removed) (human) (UniProt Q9HCN6). The experiment can be described thus: SPR (Biacore T200), GPVI amine-coupled on CM5 chip, Nb2 in solution, 1:1 kinetic fit; immobilised monomeric GPVI, not GPVI-Fc. A general note: SPR reads the build-up and loss of mass on a sensor chip optically.
In experiment [5] the target is T3, recombinant GPVI-Fc (dimeric; D1 and D2 domains of GPVI fused to the Fc domain from IgG) (human, UniProt Q9HCN6 22-203).
T3 construct: range 22-203; also called GPVI-Fcγ; dimeric GPVI; not shown: Factor Xa cleavable junction and Fc domain from IgG (Sigplg+ vector)
T3 sequence (looked up): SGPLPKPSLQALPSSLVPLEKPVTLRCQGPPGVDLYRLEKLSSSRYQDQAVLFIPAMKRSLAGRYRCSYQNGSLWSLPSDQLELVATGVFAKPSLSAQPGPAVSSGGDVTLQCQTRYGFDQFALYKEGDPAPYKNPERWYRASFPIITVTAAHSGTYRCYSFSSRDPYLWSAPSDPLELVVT
The experiment can be described thus: SPR (Biacore T200), GPVI-Fc amine-coupled on CM5 chip, Nb2 in solution, 1:1 kinetic fit. How it is done: Surface plasmon resonance experiments were performed using a Biacore T200 instrument (GE Healthcare). GPVI was immobilised directly onto the CM5 chip using amine-coupling. Reference surfaces were blocked using 1M ethanolamine pH 8. All sensograms shown are double reference subtracted and at least two replicates were injected per cycle as well as experimental replicates of n=3. Experiments were performed at 25° C. with a flow rate of 30 μL/min in HBS-P running buffer (10 mM HEPES pH 7.4, 0.15 M NaCl, 0.005% v/v surfactant P20). Each concentration of Nb2 was run as follows; 120 sec injection, 900 sec dissociation. Kinetic analysis was performed using the Biacore T200 Evaluation software using a global fitting to a 1:1 binding model.

Experiment [6] has as its target T3, recombinant GPVI-Fc (dimeric; D1 and D2 …). The experiment can be described thus: solid-phase binding assay, displacement of GPVI-Fc (100 nM) from a collagen surface.
Experiment [7] has the same target. The experiment can be described thus: solid-phase binding assay: GPVI-Fc coated surface, nanobody 100 nM per the legend (1 µM per paragraph 122), anti-His HRP, Fc-surface signal subtracted, normalised to Nb35 [cont) b]. On the procedure: FIG. 1. […] Results were plotted as a percentage of total signalling in the presence of collagen only. Dotted lines represent 100, 60 and 20% signalling levels. Data represent mean values of three experiments performed in triplicate±standard deviation. b) Surface binding assay of one nanobody (100 nM) from each family binding to a GPVI-Fc coated-surface. All the binding results have been normalised to Nb35 which gave the highest readout. Binding of each nanobody to the Fc domain-coated surface was tested and subtracted from the GPVI-Fc readings. Binding was detected using HRP conjugated anti-His antibody. The average binding of all the nanobodies to BSA represents a non-specific binding control. Data represent mean values of three experiments±standard deviation.
The recombinant GPVI used for immunisation and testing consisted of the extracellular D1 and D2 domains fused with the Fc domain from IgG. Immunisation with GPVI-Fc yielded 54 distinct nanobody sequences. The Fc domain was used to test whether the nanobodies recognise this region. The 54 nanobodies were categorized into 33 distinct binding classes on the basis of their complementary determining loop (CDR) 3 regions, which is the region that confers ligand specificity. Nanobodies (1 μM) from each binding class were tested for their ability to recognise a recombinant GPVI-Fc coated surface (FIG. 1b). The degree of nanobody binding varied between classes and could be categorised into strong (>50%), moderate (>20%) and weak binders (<20%). Strong binders included Nb2, 21, 35 and 52. Moderate binders included Nb7, 18, 28 and 54. All other nanobodies were considered to be weak binders.

For experiment [8] the target is unchanged. The experiment can be described thus: solid-phase binding assay, displacement of GPVI-Fc (100 nM) from a collagen surface (legend of Fig. 4a; differs from the text).

Changes are numbered by the printed parent chain. A value given as a limit tells only on which side of the number the result lay.

For the molecule “collagen (Horm collagen I, fibrillar) (ligand)”, in experiment [1], the fold increase in NFAT activity (luciferase reporter) turned out to be 8.3 fold.

B1: Nanobody 5 (Nb5) (VHH)
VHH: QVQLQESGGGLVQPGGSLRLSCAASGFTLDSHTIGWFRQAPGKEREGVSGINSSDGSTYYADSVKGRFTISRDNAKNTVYLQMDSLKVEDTAVYYCATTPFSLRGPTWVTPDEFDYWGQGTQVTVSSAAAYPYDVPDYGSHHHHHH
In the case of B1, the “inhibition of collagen-stimulated NFAT reporter activity (nanobody 100 nM, collagen 10 µg/ml)” value in experiment [2] was above 40%.

B2: Nanobody 2 (Nb2), with C-terminal HA and His tags (VHH)
VHH: QVQLQESGGGLVQPGGSLRLSCAAAGFTFDYYAIAWFRQAPGKEREGVSCISSSDGTTYYADSVKGRFTISKDNAKNTMYLQMNSLKPEDTAVYYCATSPLYSTNDRCISEDYDYWGQGTQVTVSSAAAYPYDVPDYGSHHHHHH
notes: Tagged form (detected with anti-His in ELISA and flow cytometry)
With B2, in experiment [3], the “IC50, inhibition of washed platelet aggregation to CRP (10 µg/ml)” value (“IC50, inhibition … (10 µg/ml)” for short) came out at 1 nM and the “IC50, inhibition of washed platelet aggregation to collagen (5 µg/mL)” value (from here on “IC50, inhibition … (5 µg/mL)”) was 172 nM. The inhibition of collagen-stimulated NFAT reporter activity (nanobody 100 nM, collagen 10 µg/ml) in experiment [1] is above 80%. This molecule also returned a Kd in experiment [4] of 0.58 nM. Besides, the Kd in experiment [5] came out at 0.7 nM. The IC50 in experiment [6] is 18 nM.

B3: Nanobody 25 (Nb25) (VHH)
VHH: B2 VHH with A25S, F29L, Y31N, A35G, T57R, K72R, T104D, N105S, S110W, D112E
As to B3, in experiment [2], the “inhibition of collagen-stimulated NFAT reporter activity (nanobody 100 nM, collagen 10 µg/ml)” value is above 40%. Also, the binding result in experiment [7] is “binds”.

B4: Nanobody 35 (Nb35), with C-terminal HA and His tags (VHH)
VHH: QVQLQESGGGLVQAGGSLRLSCAASGVTFDSAAMAWFRQVPGKEREFVAVISTESGGRTDHADSVKGRFLISRDNARHMVYLQMNSLNPEDTAVYYCASSLLYCSASGCYANRDSYDYWGQGTQVTVSSAAAYPYDVPDYGSHHHHHH
As to B4, in experiment [3], the “IC50, inhibition … (10 µg/ml)” value was 1 nM and the “IC50, inhibition … (5 µg/mL)” value was 115 nM. For the same molecule, in experiment [6], the half-maximal inhibitory concentration (IC50) worked out at 39 nM.

B5: Nanobody 19 (Nb19) (VHH)
VHH: QVQLQESGGGLVQAGGSLRLSCAASGRTFSSDAMGWFRQAPGKEREFVAAIRWSGGSTYYADSVKGRFTISRGNAKNTVYLQMNSLKPEDTAVYYCASSLLNSYYPPDHTSYEYDYWGQGTQVTVSSAAAYPYDVPDYGSHHHHHH
Consider B5, for which the “inhibition of collagen-stimulated NFAT reporter activity (nanobody 100 nM, collagen 10 µg/ml)” value in experiment [2] is above 40%. Moreover, the binding result in experiment [7] is given as “binds”.

B6: Nanobody 28 (Nb28) (VHH)
VHH: QVQLQESGGGLVQAGDSLRLSCAASGTYSMGWFRQAPGKEREFVAAISWSGGRTNYADSVKGRFTISRDNAKNTVYLQMNSLKPEDTAVYYCSAAIYDNVSSRIGSYTYWGQGTQVTVSS
B6: in experiment [7], the binding result is listed as “binds”.

B7: Nanobody 44 (Nb44) (VHH)
VHH: QVQLQESGGGLVQPGGALRLSCAASGFTLDYYAIGWFRQAPGKEREAVSCISSSDGSTYYADSVKGRFTISRDNAKNTVYLQMNSLKPEDTAVYYCATDPFYSDINCKSYEYAYWGQGTQVTVSSAAAYPYDVPDYGSHHHHHH
For B7, the “inhibition of collagen-stimulated NFAT reporter activity (nanobody 100 nM, collagen 10 µg/ml)” value in experiment [2] was above 40%. Besides, the binding result in experiment [7] is “binds”.

B8: Nanobody 1 (Nb1) (VHH)
VHH: QVQLQESGGGLVQAGGSLRLSCASSGFTFSGYQLAWFRHVAPGKEREFVAAIRWSGGITWYADSVKGRFTISRDNAKNTMYLQMNSLKPEETAVYYCAASPLYSNNYLLPDNYDYWGQGTQVTVSSAAAYPYDVPDYGSHHHHHH
On to B8, for which, in experiment [2], the “inhibition of collagen-stimulated NFAT reporter activity (nanobody 100 nM, collagen 10 µg/ml)” value was above 40%.

B9: Nanobody 33 (Nb33) (VHH)
VHH: QVQLQESGGGLVQAGDSLRLSCAASGRTFSSYVMGWFRQAPGKEREFVAAISWSGGSTYYADSVKGRFTISRDNAKNTVYLQMNSLKPEDTAVYYCAAADPPSFYSDYDWPRDHEYDYWGQGTQVTVSSAAAYPYDVPDYGSHHHHHH
On to B9, for which, in experiment [2], the “inhibition of collagen-stimulated NFAT reporter activity (nanobody 100 nM, collagen 10 µg/ml)” value is above 40%. For the same molecule, the binding result in experiment [7] is “binds”.

B10: Nanobody 22 (Nb22) (VHH)
VHH: QVQLQESGGGLVQAGGSLRLSCAPSGRTISSVDVGWFRQAPGKEREFVAHVTWSGGSTYAADSVKGRFTVSRDNAKNTVYLQMNSLKPEDTAVYYCAAALNGAFRDSWYPALWDEYDYWGQGTQVTVSSAAAYPYDVPDYGSHHHHHH
Regarding B10, the “inhibition of collagen-stimulated NFAT reporter activity (nanobody 100 nM, collagen 10 µg/ml)” value in experiment [2] was above 40%. Besides, in experiment [7], the binding result is reported as “binds”.

B11: Nanobody 21 (Nb21), with C-terminal HA and His tags (VHH)
VHH: QVQLQESGGGLVQPGGSLRLSCAASGRTFTRSIMGWFHQAPGKEREFLAGISWSGANTYYADSVRGRFTISRDNAKNTVSLQMNSLNPEDTAVYYCAADPSHPGSLISTRRSDYDSWGRGTQVTVSSAAAYPYDVPDYGSHHHHHH
Regarding B11, in experiment [2], the “inhibition of collagen-stimulated NFAT reporter activity (nanobody 100 nM, collagen 10 µg/ml)” value is above 80%. In experiment [3], the “IC50, inhibition … (10 µg/ml)” value is 22 nM and the “IC50, inhibition … (5 µg/mL)” value came out at 85 nM. Besides, in experiment [6], the IC50 was found to be 61 nM. For the same molecule, in experiment [8], the IC50 was 62 nM.

A word on the Kd: it is the constant that tells how readily two partners part at equilibrium. As a reminder, the IC50 is the concentration that gives 50% inhibition.
